# Results published in patent publication US20250163119A1, “COMPOUNDS FOR THE TREATMENT OF DIABETES OR OBESITY” (Eli Lilly and Company, priority 2023, published 2025).
# *1 amine or outer side, *2 acyl side, *3 side chain or, on linkers, in order; H or OH if unused. Where no end group is shown, it is not given here. Side-chain parts run from the residue outwards. [ ]: non-standard residue; d: D form. The star is where a group is joined. C20 diacid = O=C(O)CCCCCCCCCCCCCCCCCCC(=O)*; C18 diacid = O=C(O)CCCCCCCCCCCCCCCCC(=O)*; γGlu = O=C(O)[C@H](CCC(=O)[*:2])N[*:1]; εLys = N[C@@H](CCCCN[*:1])C(=O)[*:2]; pGlu = O=C1CC[C@@H](C(=O)O)N1; αMeL = CC(C)C[C@](C)(N)C(=O)O; PKE = not defined here; AEEA = NCCOCCOCC(=O)O; Aib = CC(C)(N)C(=O)O; Ahx = NCCCCCC(=O)O; βAla = NCCC(=O)O
# T1: human corticotropin-releasing hormone receptor 1 (CRHR1) (human, UniProt P34998 24-415)
# T1 sequence (looked up): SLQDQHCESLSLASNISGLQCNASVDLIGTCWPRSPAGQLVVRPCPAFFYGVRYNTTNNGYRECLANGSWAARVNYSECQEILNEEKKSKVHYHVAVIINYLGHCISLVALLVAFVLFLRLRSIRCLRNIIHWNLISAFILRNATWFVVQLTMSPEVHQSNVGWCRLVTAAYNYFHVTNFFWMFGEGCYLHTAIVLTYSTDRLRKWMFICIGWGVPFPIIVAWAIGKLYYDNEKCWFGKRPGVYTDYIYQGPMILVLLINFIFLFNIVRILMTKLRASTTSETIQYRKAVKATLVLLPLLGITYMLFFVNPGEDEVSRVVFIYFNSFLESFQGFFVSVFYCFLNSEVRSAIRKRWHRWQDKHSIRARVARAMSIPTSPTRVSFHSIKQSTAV
# B1: polypeptide comprising SEQ ID NO:28 (peptide)
# peptide: [γGlu]GSPSIVTS[αMeL]DVPT[Aib][αMeL]LQKILEQERAEKARQQATEAAEILAQV-NH2
# modifications: not fully specified (residue 1, N-terminus); also: Glu1 linked through its gamma-carboxyl to Gly2
# B2: polypeptide comprising SEQ ID NO:26 (peptide)
# peptide: [γGlu]GSPSIVTS[αMeL]DVPT[Aib][αMeL]LQKILEQERAEKARQQATEAAEILAQV-NH2
# modifications: not fully specified (residue 1, N-terminus); also: Glu1 linked through its gamma-carboxyl to Gly2
# Molecular target: T1, human corticotropin-releasing hormone …
# Test: cell-based or functional assay
row,Binder,hCRHR1 cAMP EC50 [µM]
1,Ac-GSPSIVTS[αMeL]DVPT[Aib][αMeL]LQKILEQERAEKARQQAK([βAla-Ser-βAla-Ser-γGlu-C20 diacid])EAAEILAQV-NH2 [polypeptide comprising SEQ ID NO:10],> 10
2,Ac-GSPSIVTS[αMeL]DVPT[Aib][αMeL]LQKILEQERAEKARQQAK([γGlu-Pro-Lys-Glu-εLys-C20 diacid])EAAEILAQV-NH2 [polypeptide comprising SEQ ID NO:13],> 10
3,Ac-GSPSIVTS[αMeL]DVPT[Aib][αMeL]LQKILEQERAEKARQQAK([γGlu-AEEA-Ahx-C20 diacid])EAAEILAQV-NH2 [polypeptide comprising SEQ ID NO:5],> 10
4,Ac-IVTS[αMeL]D[dV]PTG[αMeL]LQIKLEQERAEKARQQAKENTEILAQV-NH2 (not fully specified (residue 29)) [polypeptide comprising SEQ ID NO:36],1.8
5,Ac-GSPSIVTS[αMeL]DVPT[Aib][αMeL]LQKILEQERAEKARQQAK([γGlu-GKEKEKE-C20 diacid])EAAEILAQV-NH2 [polypeptide comprising SEQ ID NO:6],> 10
6,Ac-IVTS[αMeL]D[dV]PTG[αMeL]LQIKLEQERAEKARQQAKENTEILAQV-NH2 (not fully specified (residue 29)) [polypeptide comprising SEQ ID NO:34],> 10
7,[pGlu]GSPSGIVTS[αMeL]DVPT[Aib][αMeL]LQKILEQERAEKARQQAK([γGlu-AEEA-εLys-C18 diacid])EAAEILAQV-NH2 [polypeptide comprising SEQ ID NO:24],> 10
8,Ac-GSPSIVTS[αMeL]DVPT[Aib][αMeL]LQKILEQERAEKARQQAK([AEEA-KEKEKE-γGlu-C20 diacid])EAAEILAQV-NH2 [polypeptide comprising SEQ ID NO:9],> 10
9,[pGlu]GSPSGIVTS[αMeL]DVPT[Aib][αMeL]LQKILEQERAEKARQQAKEAAEILAQV-NH2 [polypeptide comprising SEQ ID NO:23],> 10
10,Ac-GSPSIVTS[αMeL]DVPT[Aib][αMeL]LQKILEQERAEKARQQAK([γGlu-Pro-Glu-Pro-Glu-Pro-Glu-C20 diacid])EAAEILAQV-NH2 [polypeptide comprising SEQ ID NO:16],> 10
11,Ac-GSPSIVTS[αMeL]DVPT[Aib][αMeL]LQKILEQERAEKARQQAK([γGlu-Pro-Pro-Pro-εLys-C20 diacid])EAAEILAQV-NH2 [polypeptide comprising SEQ ID NO:14],> 10
12,Ac-GSPSIVTS[αMeL]DVPT[Aib][αMeL]LQKILEQERAEKARQQAK([AEEA-PKE-γGlu-C20 diacid])EAAEILAQV-NH2 (reading uncertain) [polypeptide comprising SEQ ID NO:3],> 10
13,H-GSPSIVTS[αMeL]DVPT[Aib][αMeL]LQKILEQERAEKARQQATEAAEILAQV-NH2 [polypeptide comprising SEQ ID NO:27],> 10
14,Ac-GSPSIVTS[αMeL]DVPT[Aib][αMeL]LQKLLEQERAEKARQQAK([γGlu-AEEA-Lys-C18 diacid])EAAEILAQV-NH2 (not fully specified) [polypeptide comprising SEQ ID NO:12],> 10
15,Ac-GSPSIVTS[αMeL]DVPT[Aib][αMeL]LQKILEQERAEKARQQAK([γGlu-AEEA-AEEA-εLys-C20 diacid])EAAEILAQV-NH2 [polypeptide comprising SEQ ID NO:17],> 10
16,Ac-GSPSIVTS[αMeL]DVPT[Aib][αMeL]LQKILEQERAEKARQQAK([γGlu-Pro-Pro-Pro-Pro-Pro-Pro-C20 diacid])EAAEILAQV-NH2 [polypeptide comprising SEQ ID NO:15],> 10
17,Ac-GSPSIVTS[αMeL]DVPT[Aib][αMeL]LQKILEQERAEKARQQAK([Gly-βAla-βAla-βAla-βAla-γGlu-C20 diacid])EAAEILAQV-NH2 [polypeptide comprising SEQ ID NO:8],> 10
18,Ac-GSPSIVTS[αMeL]DVPT[Aib][αMeL]LQKILEQERAEKARQQAK([γGlu-Pro-Lys-Glu-Ahx-C20 diacid])EAAEILAQV-NH2 [polypeptide comprising SEQ ID NO:11],> 10

row,Binder,hCRHR1 cAMP EC50 [µM]
1,"[γGlu]GSPSIVTS[αMeL]DVPT[Aib][αMeL]LEKILEQERAEKARQQATEAAEILAQV-NH2 (not fully specified (residue 1, N-terminus)) [polypeptide comprising SEQ ID NO:52]",1.5
2,Ac-GSPSIVTS[αMeL]DVPT[Aib][αMeL]LQKILEQERAEKARQQAK([γGlu-εLys-AEEA-εLys-C20 diacid])EAAEILAQV-NH2 [polypeptide comprising SEQ ID NO:19],> 10
3,Ac-IVTS[αMeL]D[dV]PI[Aib][αMeL]LQIKLEQERAEKARQQAKENTEILAQV-NH2 (not fully specified (residue 29)) [polypeptide comprising SEQ ID NO:51],4.3
4,Ac-IVTS[αMeL]D[dV]PTG[αMeL]LQIKLEQERAEKARQQAKENTEILAQV-NH2 (not fully specified (residue 29)) [polypeptide comprising SEQ ID NO:33],1.1
5,Ac-IVTS[αMeL]D[dV]PTG[αMeL]LQIKLEQERAEKARQQAKENTEILAQV-NH2 (not fully specified (residue 29)) [polypeptide comprising SEQ ID NO:31],> 10
6,Ac-IVTS[αMeL]D[dV]PTG[αMeL]LQIKLEQERAEKARQQAKENTEILAQV-NH2 (not fully specified (residue 29)) [polypeptide comprising SEQ ID NO:30],> 10
7,Ac-GSPSIVTS[αMeL]DVPT[Aib][αMeL]LQKILEQERAEKARQQAK([Gly-βAla-βAla-βAla-γGlu-C20 diacid])EAAEILAQV-NH2 [polypeptide comprising SEQ ID NO:7],> 10
8,Ac-GSPSIVTS[αMeL]DVPT[Aib][αMeL]LQKILEQERAEKARQQAK([γGlu-AEEA-εLys-C18 diacid])EAAEILAQV-NH2 [polypeptide comprising SEQ ID NO:21],> 10
9,Ac-GSPSIVTS[αMeL]DVPT[Aib][αMeL]LQKILEQERAEKARQQAK([Ahx-AEEA-γGlu-C20 diacid])EAAEILAQV-NH2 [polypeptide comprising SEQ ID NO:4],> 10
10,Ac-GSPSIVTS[αMeL]DVPT[Aib][αMeL]LQKILEQERAEKARQQAKEAAEILAQV-NH2 [polypeptide comprising SEQ ID NO:20],> 10
11,B1,> 10
12,Ac-IVTS[αMeL]D[dV]PTG[αMeL]LQIKLEQERAEKARQQAKENTEILAQV-NH2 (not fully specified (residue 29)) [polypeptide comprising SEQ ID NO:32],> 10
13,Ac-IVTS[αMeL]D[dV]PTG[αMeL]LQIKLEQERAEKARQQAKENTEILAQV-NH2 (not fully specified (residue 29)) [polypeptide comprising SEQ ID NO:38],1.1
14,B2,> 10
15,Ac-IVTS[αMeL]D[dV]PTG[αMeL]LQIKLEQERAEKARQQAKENTEILAQV-NH2 (not fully specified (residue 29)) [polypeptide comprising SEQ ID NO:35],3
16,Ac-IVTS[αMeL]D[dV]PTG[αMeL]LQIKLEQERAEKARQQAKENTEILAQV-NH2 (not fully specified (residue 29)) [polypeptide comprising SEQ ID NO:39],3.7
17,Ac-GSPSIVTS[αMeL]DVPT[Aib][αMeL]LQKILEQERAEKARQQAK([γGlu-εLys-γGlu-εLys-C20 diacid])EAAEILAQV-NH2 [polypeptide comprising SEQ ID NO:18],> 10
18,Ac-IVTS[αMeL]D[dV]PTG[αMeL]LQIKLEQERAEKARQQAKENTEILAQV-NH2 (not fully specified (residue 29)) [polypeptide comprising SEQ ID NO:37],1.7
